In test [1] the target is T1, activin A (Homo sapiens, UniProt P08476).
T1 sequence (P08476 311-426): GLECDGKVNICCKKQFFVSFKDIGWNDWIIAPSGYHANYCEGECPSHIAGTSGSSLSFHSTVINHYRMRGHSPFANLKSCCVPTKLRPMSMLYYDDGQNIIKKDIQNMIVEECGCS
Nature of the test: A-204 reporter gene assay, pGL3(CAGA)12 luciferase. The note with it: A-204 reporter gene assay. It counts as cell-based. A digest of the protocol: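 Human rhabdomyosarcoma A-204 cells transfected with SMAD-responsive pGL3(CAGA)12 luciferase reporter (optionally with pRLCMV). Ligand in medium + 0.1% BSA, preincubated ~1 h with Fc-fusion inhibitor before addition to cells; after ~6 h cells lysed and luciferase activity measured.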
Background: A reporter such as luciferase makes a cellular process visible.

The target of test [2] is T2, GDF11 (Homo sapiens, UniProt O95390).
T2 sequence (O95390 299-407): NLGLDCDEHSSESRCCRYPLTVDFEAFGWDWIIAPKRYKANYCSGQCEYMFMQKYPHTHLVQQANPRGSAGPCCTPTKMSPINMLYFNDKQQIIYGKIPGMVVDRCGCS
As to the kind of experiment: Biacore ligand binding profile, ALK4-Fc:ActRIIB-Fc heterodimer vs homodimers, anti-Fc capture (Example 13, Table 13). How it is done: (§1) A Biacore™-based binding assay was used to compare ligand binding selectivity of the ALK4-Fc:ActRIIB-Fc heterodimeric complex described above with that of ActRIIB-Fc and ALK4-Fc homodimer complexes. The ALK4-Fc:ActRIeB-Fc heterodimer, […], and ALK4-Fc homodimer were independently captured onto the system using an anti-Fc antibody. Ligands were injected and allowed to flow over the captured receptor protein. Results are summarized in Table 13 below, in which ligand off-rates (kd) most indicative of effective polypeptides are denoted in bold.
(Surface plasmon resonance follows binding to a sensor surface in real time, without labels.)

Test [3] deals with T3, activin B (Homo sapiens, UniProt P09529).
T3 sequence (P09529 293-407): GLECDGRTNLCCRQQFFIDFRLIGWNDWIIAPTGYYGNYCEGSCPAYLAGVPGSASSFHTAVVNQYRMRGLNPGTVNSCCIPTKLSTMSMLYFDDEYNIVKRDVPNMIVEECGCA
The test is described as above. How it is done:
as §1

Test [4] addresses T4, GDF3 (Homo sapiens, UniProt Q9NR23).
T4 sequence (Q9NR23 251-364): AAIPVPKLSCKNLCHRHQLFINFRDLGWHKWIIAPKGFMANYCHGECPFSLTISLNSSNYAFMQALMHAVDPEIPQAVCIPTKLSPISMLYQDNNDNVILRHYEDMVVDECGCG
The description is as above. How it is done: as §1

In test [5] the target is T5, BMP6 (Homo sapiens, UniProt P22004).
T5 sequence (P22004 375-513): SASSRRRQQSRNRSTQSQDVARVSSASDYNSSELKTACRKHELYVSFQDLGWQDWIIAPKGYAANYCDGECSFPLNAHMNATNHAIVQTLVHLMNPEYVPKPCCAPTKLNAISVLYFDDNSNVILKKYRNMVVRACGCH
The description is as above. The protocol: as §1

The target in test [6] is T1, activin A. The test is described as above. The protocol: as §1
Test [7] concerns the target T6, BMP9 (Homo sapiens, UniProt Q9UK05).
T6 sequence (Q9UK05 320-429): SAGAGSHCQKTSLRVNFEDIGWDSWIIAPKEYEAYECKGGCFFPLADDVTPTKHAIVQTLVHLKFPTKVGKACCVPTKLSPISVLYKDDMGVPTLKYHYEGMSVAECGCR
Described as above. The protocol: as §1

Test [8] deals with T7, BMP10 (Homo sapiens, UniProt O95393).
T7 sequence (O95393 317-424): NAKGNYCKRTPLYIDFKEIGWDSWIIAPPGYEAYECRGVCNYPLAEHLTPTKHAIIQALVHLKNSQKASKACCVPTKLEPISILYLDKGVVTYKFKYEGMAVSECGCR
Described as above. The protocol: as §1

The target in test [9] is T8, GDF8 (Homo sapiens, UniProt O14793).
T8 sequence (O14793 267-375): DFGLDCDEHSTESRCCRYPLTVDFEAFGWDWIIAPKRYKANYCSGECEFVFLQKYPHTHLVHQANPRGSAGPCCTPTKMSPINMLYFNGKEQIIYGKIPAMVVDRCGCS
Described as above. How it is done: as §1

“Also recorded” adds a separate entry of the source.

B1: ALK4-Fc:ActRIIB-Fc heterodimer: heteromeric complex of extracellular domains of human ActRIIB and human ALK4, each separately fused to an Fc domain with a linker (protein)
chain 1: GRGEAETRECIYYNANWELERTNQSGLERCEGEQDKRLHCYASWRNSSGTIELVKKGCWLDDFNCYDRQECVATEENPQVYFCCCEGNFCNERFTHLPEAGGPEVTYEPPPTAPTGGGTHTCPPCPAPELLGGPSVFLFPPKPKDTLMISRTPEVTCVVVDVSHEDPEVKFNWYVDGVEVHNAKTKPREEQYNSTYRVVSVLTVLHQDWLNGKEYKCKVSNKALPAPIEKTISKAKGQPREPQVYTLPPSRKEMTKNQVSLTCLVKGFYPSDIAVEWESNGQPENNYKTTPPVLKSDGSFFLYSKLTVDKSRWQQGNVFSCSVMHEALHNHYTQKSLSLSPGK
chain 2: SGPRGVQALLCACTSCLQANYTCETDGACMVSIFNLDGMEHHVRTCIPKVELVPAGKPFYCLSSEDLRNTHCCYTDYCNRIDLRVPSGHLKEPEHPSMWGPVETGGGTHTCPPCPAPELLGGPSVFLFPPKPKDTLMISRTPEVTCVVVDVSHEDPEVKFNWYVDGVEVHNAKTKPREEQYNSTYRVVSVLTVLHQDWLNGKEYKCKVSNKALPAPIEKTISKAKGQPREPQVYTLPPSREEMTKNQVSLTCLVKGFYPSDIAVEWESNGQPENNYDTTPPVLDSDGSFFLYSDLTVDKSRWQQGNVFSCSVMHEALHNHYTQKSLSLSPG
With B1, the “inhibition of activin A signaling” value in [1] is “potent inhibitors”. Further, the “GDF11 binding” value in test [2] (Example 13) was “strong binding”. Also, the ka in test [2] (ligand GDF11, Table 13) is 3.8e+07 M⁻¹ s⁻¹; in test [3] (ligand Activin B, Table 13), 7.1e+06 M⁻¹ s⁻¹; in [4] (ligand GDF3, Table 13), 3.4e+06 M⁻¹ s⁻¹; in [5] (ligand BMP6, Table 13), 2e+06 M⁻¹ s⁻¹; in [6] (ligand Activin A, Table 13) it was 1.3e+07 M⁻¹ s⁻¹; in test [8] (ligand BMP10, Table 13), 5.6e+07 M⁻¹ s⁻¹. The same molecule showed a ka in test [9] (ligand GDF8, Table 13) of 390000 M⁻¹ s⁻¹. In addition, the kd is 0.00011 s⁻¹ in test [2] (ligand GDF11, Table 13); 4e-05 s⁻¹ in [3] (ligand Activin B, Table 13); 0.017 s⁻¹ in test [4] (ligand GDF3, Table 13); 0.0055 s⁻¹ in [5] (ligand BMP6, Table 13); 0.00015 s⁻¹ in [6] (ligand Activin A, Table 13); “Transient*” in [7] (ligand BMP9, Table 13). Further, the kd in [8] (ligand BMP10, Table 13) was found to be 0.0041 s⁻¹; in test [9] (ligand GDF8, Table 13), 0.00021 s⁻¹. In [3] (Example 13), the “activin B binding” value was “enhanced binding to activin B compared with either homodimer”. Further, the “GDF3 binding” value in [4] (Example 13) is recorded as “substantially reduced binding”. Further, in test [5] (Example 13), the “BMP6 binding” value is on record as “intermediate-level binding”. In addition, in [6] (Example 13), the “activin A binding” value is “strong binding”. Also, the “BMP9 binding” value in test [7] (Example 13) is listed as “substantially reduced binding; also recorded: low or no observable affinity”. In test [8] (Example 13), the “BMP10 binding” value is reported as “substantially reduced binding”. Besides, in [9] (Example 13), the “GDF8 binding” value is recorded as “strong binding”.

For the origin of these results see patent US20230129812A1, “COMPOSITIONS AND METHODS FOR TREATING PULMONARY HYPERTENSION” (Acceleron Pharma Inc., priority 2020, published 2023).
